# Assays:
# [1] = tested on: fracture-healing in rabbits; settings: no distraction; cited from earlier work
# [2] = tested on: distracted tibia (callus distraction) of Yucatan mini-pigs; assay: Mechanical torsion testing of distracted tibia after callus distraction in GH-treated mini-pigs; format: in vivo, Yucatan mini-pig; settings: at sacrifice
# Experimental: After sacrifice, the right and left limb were dissected. The soft tissue around the joints was removed, and the ends of the tibia were casted in Beracryl. The constructs were placed in a materials testing machine (Zwick, Ulm, Germany), and torsional moments were applied. Resulting displacements and torsional moments were recorded. The test was conducted with a speed of 30° per minute until failure. The system automatically terminated the test at a torque of 20%.
# The final bone torsional strength of a mini-pig group treated with growth hormone was investigated relative to a control group.
# 30 mature female Yucatan mini-pigs were equally distributed into two treatment groups. Mini-pigs in the study group received a daily injection of recombinant porcine growth hormone (r-pGH: 100 μg/kg), the mini-pigs in the control group received sodium chloride as placebo. The left tibiae and fibulae were osteotomized and stabilized with an external fixator. Full weight bearing was permitted. The legs were distracted twice daily at 2 mm/day for 10 days and then allowed to consolidate for 10 days. After sacrifice, torsional moments were applied to the distracted and the contralateral tibia in a material testing machine and the maximum torsional moment was determined. Four animals were removed from the study due to bone infection or surgery failure and data of 2 animals were lost due to test machine failure. A t-test was used to determine differences in maximum torsional moments between the treatment groups.
# healing fracture in dogs = settings: compared to non-treated dogs; cited from earlier work
molecule,measurement,setting,value
growth hormone,effect on fracture-healing,[1],no effect
"GH: recombinant porcine growth hormone (r-pGH), homologous GH injected daily at 100 μg/kg in mini-pigs (protein, UniProt P01248 27-216, looked up) Somatotropin: FPAMPLSSLFANAVLRAQHLHQLAADTYKEFERAYIPEGQRYSIQNAQAAFCFSETIPAPTGKDEAQQRSDVELLRFSLLLIQSWLGPVQFLSRVFTNSLVFGTSDRVYEKLKDLEEGIQALMRELEDGSPRAGQILKQTYDKFDTNLRSDDALLKNYGLLSCFKKDLHKAETYLRVMKCRRFVESSCAF",maximum torsional moment of distracted tibia,"[2]; r-pGH 100 μg/kg daily injection, distraction 2 mm/day for 10 days, consolidation 10 days, p=0.001 vs placebo",19.5±7.8 Nm
same,maximum torsional moment in comparison to the intact contralateral tibia,"[2]; r-pGH 100 μg/kg daily, p<0.001 vs control",64±22.4%
same,higher maximum torsional moment than placebo group,"[2]; r-pGH 100 μg/kg daily, versus placebo group",131%
"cST: canine somatotropin given to dogs in the study of Buonomo et al. (protein, UniProt P33711 27-216, looked up) Somatotropin: FPAMPLSSLFANAVLRAQHLHQLAADTYKEFERAYIPEGQRYSIQNAQAAFCFSETIPAPTGKDEAQQRSDVELLRFSLLLIQSWLGPVQFLSRVFTNSLVFGTSDRVYEKLKDLEEGIQALMRELEDGSPRAGQILKQTYDKFDTNLRSDDALLKNYGLLSCFKKDLHKAETYLRVMKCRRFVESSCAF",increase of stiffness of the healing fracture,healing fracture in dogs,5 fold
same,increase of strength of the healing fracture,healing fracture in dogs,3 fold

# From US20020128178A1, “Use of growth hormone or a growth hormone secretagogue for promoting bone formation” (priority 1996, published 2002)
